Results published in patent US20210106652A1, “Immunogenic Compounds For Treatment Of Fibrosis, Autoimmune Diseases And Inflammation” (ENTEROME S.A., priority 2018, published 2021).

Assays:
HLA-A*0201 = molecular target: T1, HLA-A*0201 (Homo sapiens, UniProt P04439, D140Y/D185E/D98H/E176V/E277Q/G131W/G231S/I119V/I121R/I166T/I218V/L300P/L318F/N151K/N90K/P208A/P217A/Q86G/Q94H/R138H/R169H/T345S); experiment: Affinity of the peptide to HLA-A*0201 on T2 cell line (FACS, anti-HLA-A2); type: binding; details: for Concentration of peptide that induces 20% of HLA-A2 expression: Example 7; for binding to HLA-A*0201 (in words): T2 cells; for In vitro binding affinity: Example 5, relative affinity = concentration of peptide inducing 20% of HLA-A*0201 expression / that of reference peptide HIV pol 589-597, lower = higher affinity
T1 construct: human tumoral cell T2 which expresses the HLA-A*0201 molecule; endogenous in cells; host or cells: T2 cells (human, TAP1/2 negative)
Text: The experimental protocol is similar to the one that was validated for peptides presented by the HLA-A*0201 (Tourdot et al., A general strategy to enhance immunogenicity of low-affinity HLA-A2.1-associated peptides: implication in the identification of cryptic tumor epitopes. Eur J Immunol. 2000 December; 30(12):3411-21). Affinity measurement of the peptides is achieved with the human tumoral cell T2 which expresses the HLA-A*0201 molecule, but which is TAP1/2 negative and incapable of presenting endogenous peptides.
T2 cells (2.10^5 cells per well) are incubated with decreasing concentrations of peptides from 100 μM to 0.1 μM in a AIMV medium supplemented with 100 ng/μl of human β2m at 37° C. for 16 hours. Cells are then washed two times and marked with the anti-HLA-A2 antibody coupled to PE (clone BB7.2, BD Pharmagen).
The analysis is achieved by FACS (Guava Easy Cyte).
For each peptide concentration, the geometric mean of the labelling associated with the peptide of interest is substracted from background noise and reported as a percentage of the geometric mean of the […] labelling obtained for the reference peptide HIV pol 589-597 at a concentration of 100 μM. The relative affinity is then determined as follows:
relative affinity=concentration of each peptide inducing 20% of expression of HLA-A*0201/concentration of the reference peptide inducing 20% of expression of HLA-A*0201.
The experimental protocol was similar to the one that was validated for peptides presented by the HLA-A*0201 (Tourdot et al., A general strategy to enhance immunogenicity of low-affinity HLA-A2.1-associated peptides: implication in the identification of cryptic tumor epitopes. Eur J Immunol. 2000 December; 30(12):3411-21).
T2 cells (2.10^5 cells per well) were incubated with decreasing concentrations of peptides from 100 μM to 0.1 μM in a AIMV medium supplemented with 100 ng/μl of human β2m at 37° C. for 16 hours. Cells were then washed two times and marked with the anti-HLA-A2 antibody coupled to PE (clone BB7.2, BD Pharmagen).
The analysis was achieved by FACS (Guava Easy Cyte).
For each peptide concentration, the geometric mean of the labelling associated with the peptide of interest was subtracted from background noise and reported as a percentage of the geometric mean of the […] labelling obtained for the reference peptide HIV pol 589-597 at a concentration of 100 μM. The relative affinity is then determined as follows:
The experimental protocol, materials and methods correspond to those outlined in Example 3, with the only difference that the above mentioned (poly)peptides were used.
The experimental protocol, materials and methods correspond to those outlined in Example 2, with the only difference that the above mentioned (poly)peptides were used.

HHD DR3 mice = experiment: IFN-γ ELISpot immunogenicity and cross-reactivity in HHD DR3 (HLA-A2 transgenic) mice; type: in vivo, mouse; details: 100 μg s.c. d0, d14 with helper peptide (DR3) and IFA; challenge with either IL13RA2-L or IL13RA2-H
Description: The (poly)peptide of the present invention IL13RA2-L (SEQ ID NO: 279) and the corresponding human reference peptide IL13RA2-H (SEQ ID NO: 263) were tested in distinct groups of male and female HHD DR3 mice expressing human HLA-A2 and HLA-DR3 MHC and lacking the murine H-2 class I and class II MHCs. Groups of 5 mice (male and female) were subcutaneously injected on days 0 and 14 with 100 μg of IL13RA2-L (SEQ ID NO: 279) or IL13RA2-H (SEQ ID NO: 263), 150 μg of helper peptide (DR3) and IFA. On day 21, the mice were euthanized and splenocytes were prepared and stimulated in vitro with IL13RA2-L or the human corresponding peptide IL13RA2-H to assess their capacity to secrete IFN- as assessed by ELISpot. Concanavalin A (ConA) was used as a positive control.

[1] = molecular target: T2, HLA-A*0201 molecule expressed on human T2 cells (human); experiment: T2 cell assay; relative affinity against reference peptide HIV pol 589-597
T2 construct: MHC class I molecule on T2 cells; also called HLA-A2

**Q.** What does the source list for FLPFGFILV [IL13RA2-B]?
**A.** Concentration of peptide that induces 20% of HLA-A2 expression (HLA-A*0201): 2.9 µM; binding to HLA-A*0201 (in words) (HLA-A*0201): bind strongly

**Q.** Which results are given for WLPFGFILI [IL13RA2-H]?
**A.** immune response (IFN-γ ELISpot, spot forming cells) after immunisation (HHD DR3 mice): does not induce an immune response; binding to HLA-A*0201 (in words) (HLA-A*0201): do not bind to or show much lower affinity

**Q.** Which “In vitro binding affinity” value (HLA-A*0201) does the source give for “1I9A: tryptophan at position 1 of SEQ ID No 263 substituted by isoleucine and isoleucine at position 9 substituted by alanine (ILPFGFILA)” here?
**A.** Its value is 2.22.

**Q.** With CLYTFLIST [IL13RA2-H2] as the molecule, how does the “binding to HLA-A*0201 (in words)” value (HLA-A*0201) read?
**A.** Its value is “do not bind to or show much lower affinity”.

**Q.** YLYTFLIST [IL13RA2-B2] was tested. Which “binding to HLA-A*0201 (in words)” value (HLA-A*0201) did it give?
**A.** Its value is “bind strongly”.

**Q.** For “1F9M: tryptophan at position 1 of SEQ ID No 263 substituted by phenylalanine and isoleucine at position 9 substituted by methionine (FLPFGFILM)”, which “In vitro binding affinity” value (HLA-A*0201) is on record?
**A.** Its value is 2.62.

**Q.** How did the “immune response (IFN-γ ELISpot, spot forming cells) after immunisation” value (HHD DR3 mice) turn out when FLPFGFILPV [IL13RA2-L] was run?
**A.** The value was “strongly immunogenic”.

**Q.** And the “Concentration of peptide that induces 20% of HLA-A2 expression” value (HLA-A*0201)?
**A.** The value was 3.2 µM.

**Q.** With ALPFGFILV [1A9V] as the molecule, how does the “In vitro binding affinity” value (HLA-A*0201) read?
**A.** Its value is 3.06.

**Q.** What about the “Concentration of peptide that induces 20% of HLA-A2 expression” value (HLA-A*0201) of the same molecule?
**A.** Its value is 36.5 µM.

B1: IL13RA2-L (SEQ ID NO: 279) (peptide)
peptide: FLPFGFILPV
notes: also called IL13R2A-L
**Q.** Which “In vitro binding affinity” value [1] does the source give for B1 here?
**A.** The value was 0.3.

B2: IL13RA2-B (FLPFGFILV, SEQ ID NO: 31) (peptide)
peptide: FLPFGFILV
notes: also called IL13RA2-B pAg; candidate peptide
**Q.** B2 was tested. Which “In vitro binding affinity” value [1] did it give?
**A.** The value was 0.3.

B3: peptide 1A9V (SEQ ID NO: 263 with tryptophan 1 to alanine and isoleucine 9 to valine) (peptide)
peptide: ALPFGFILV
notes: Analogue described by Eguchi et al. 2006; also called comparative peptide 1A9V
**Q.** With B3 as the molecule, how does the “In vitro binding affinity” value [1] read?
**A.** The value was 3.6.
